This is an account of results in article PMC5570165.

In the data set the test system is p19 N15K,G16R. As to the kind of experiment: BLI / MSD-SET. Conditions: 2'-OMe at select positions, BLI: citrate-phosphate buffer, 100 mM NaCl, 0.1% BSA, 0.002% Tween-20, 37 C (pH of the siRNA assay not stated), MSD-SET: PBS, 100 pM siRNA, 24 h ….

Sequence “AACGCUGGGCGUUAAUCAATT / UUGAUUAACGCCCAGCGUUTT [Seq 7 siRNA]” had a binding signal (fold higher affinity than p19 (up to)) of 160.
